Literature values as cited in PMC11969061.

Target: BTN3A IgV (Homo sapiens) (UniProt O00481)
Chain of UniProt O00481 (O00481 30-139): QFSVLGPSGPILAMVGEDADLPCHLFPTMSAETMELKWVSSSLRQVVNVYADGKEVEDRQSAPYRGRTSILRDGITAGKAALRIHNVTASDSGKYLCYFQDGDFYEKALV

Kd: 600 µM
Substance: BTN2A1 IgV (from UniProt Q7KYR7)
